Data from the supplement of paper PMC11246515.
± gives the standard deviation of the averaged measurements.

Experiment: total protein half-life in vivo (active degradation + dilution); higher = more stable protein
[1] = E. coli NCM3722 delta-clpP delta-lon delta-hslV, growth: N-lim chemostat, doubling time 6 h
[2] = E. coli NCM3722 delta-clpP, growth: N-lim chemostat, doubling time 6 h
[3] = E. coli NCM3722 delta-hslV, growth: N-lim chemostat, doubling time 6 h
[4] = E. coli NCM3722 delta-lon, growth: N-lim chemostat, doubling time 6 h
[5] = E. coli NCM3722 delta-smpB, growth: N-lim chemostat, doubling time 6 h
[6] = wild type E. coli NCM3722, growth: C-lim chemostat, doubling time 3 h
[7] = wild type E. coli NCM3722, growth: C-lim chemostat, doubling time 6 h
[8] = wild type E. coli NCM3722, growth: C-lim chemostat, doubling time 12 h
[9] = wild type E. coli NCM3722, growth: N-lim chemostat, doubling time 6 h
[10] = wild type E. coli NCM3722, growth: N-lim chemostat, doubling time 12 h
[11] = wild type E. coli NCM3722, growth: P-lim chemostat, doubling time 6 h
[12] = wild type E. coli NCM3722, growth: P-lim chemostat, doubling time 12 h

Sequence	total protein half-life in vivo [1] [h]	total protein half-life in vivo [2] [h]	total protein half-life in vivo [3] [h]	total protein half-life in vivo [4] [h]	total protein half-life in vivo [5] [h]	total protein half-life in vivo [6] [h]	total protein half-life in vivo [7] [h]	total protein half-life in vivo [8] [h]	total protein half-life in vivo [9] [h]	total protein half-life in vivo [10] [h]	total protein half-life in vivo [11] [h]	total protein half-life in vivo [12] [h]
MFNSDNLRLDGKCAIITGAGAGIGKEIAITFATAGASVVVSDINADAANHVVDEIQQLGGQAFACRCDITSEQELSALADFAISKLGKVDILVNNAGGGGPKPFDMPMADFRRAYELNVFSFFHLSQLVAPEMEKNGGGVILTITSMAAENKNINMTSYASSKAAASHLVRNMAFDLGEKNIRVNGIAPGAILTDALKSVITPEIEQKMLQHTPIRRLGQPQDIANAALFLCSPAASWVSGQILTVSGGGVQELN [P0AET8]	4.91 ± 0.11	4.39 ± 0.73	4.72 ± 0.18	5.48 ± 0.66	4.27 ± 0.21	3.53 ± 0.6	5.51 ± 1.1	10.2 ± 1.2	4.57 ± 0.14	7.309 ± 0.022	5.64 ± 0.42	11.8 ± 0.3
MFQLSVQDIHPGEKAGDKEEAIRQVAAALVQAGNVAEGYVNGMLAREQQTSTFLGNGIAIPHGTTDTRDQVLKTGVQVFQFPEGVTWGDGQVAYVAIGIAASSDEHLGLLRQLTHVLSDDSVAEQLKSATTAEELRALLMGEKQSEQLKLDNEMLTLDIVASDLLTLQALNAARLKEAGAVDATFVTKAINEQPLNLGQGIWLSDSAEGNLRSAIAVSRAANAFDVDGETAAMLVSVAMNDDQPIAVLKRLADLLLDNKADRLLKADAATLLALLTSDDAPTDDVLSAEFVVRNEHGLHARPGTMLVNTIKQFNSDITVTNLDGTGKPANGRSLMKVVALGVKKGHRLRFTAQGADAEQALKAIGDAIAAGLGEGA	6.229 ± 0.029	5.64 ± 0.69	5.85 ± 0.086	6.16 ± 0.26	5.94 ± 0.085	2.96 ± 0.13	5.74 ± 0.56	12.3 ± 1.2	5.99 ± 0.57	–	5.71 ± 0.078	11.97 ± 0.033
MFQQQKDWETRENAFAAFTMGPLTDFWRQRDEAEFTGVDDIPVRFVRFRAQHHDRVVVICPGRIESYVKYAELAYDLFHLGFDVLIIDHRGQGRSGRLLADPHLGHVNRFNDYVDDLAAFWQQEVQPGPWRKRYILAHSMGGAISTLFLQRHPGVCDAIALTAPMFGIVIRMPSFMARQILNWAEAHPRFRDGYAIGTGRWRALPFAINVLTHSRQRYRRNLRFYADDPTIRVGGPTYHWVRESILAGEQVLAGAGDDATPTLLLQAEEERVVDNRMHDRFCELRTAAGHPVEGGRPLVIKGAYHEILFEKDAMRSVALHAIVDFFNRHNSPSGNRSTEV	5.43 ± 1.2	> 8	4.87 ± 0.73	4.93 ± 0.22	4.57 ± 0.31	3.13 ± 0.43	6.52 ± 0.38	11.3 ± 1.8	4.42 ± 0.28	8.56 ± 0.72	6.17 ± 0.69	10.8 ± 0.91
MFRPFLNSLMLGSLFFPFIAIAGSTVQGGVIHFYGQIVEPACDVSTQSSPVEMNCPQNGSIPGKTYSSKALMSGNVKNAQIASVKVQYLDKQKKLAVMNIEYN	–	–	–	–	–	0.288	0.225	–	–	–	–	–
MFSALRHRTAALALGVCFILPVHASSPKPGDFANTQARHIATFFPGRMTGTPAEMLSADYIRQQFQQMGYRSDIRTFNSRYIYTARDNRKSWHNVTGSTVIAAHEGKAPQQIIIMAHLDTYAPLSDADADANLGGLTLQGMDDNAAGLGVMLELAERLKNTPTEYGIRFVATSGEEEGKLGAENLLKRMSDTEKKNTLLVINLDNLIVGDKLYFNSGVKTPEAVRKLTRDRALAIARSHGIAATTNPGLNKNYPKGTGCCNDAEIFDKAGIAVLSVEATNWNLGNKDGYQQRAKTPAFPAGNSWHDVRLDNHQHIDKALPGRIERRCRDVMRIMLPLVKELAKAS	–	5.3 ± 0.29	5.24 ± 0.83	5.44 ± 0.031	4.38 ± 0.053	2.58 ± 0.67	2.46	–	5.37 ± 1	9.09 ± 1.6	4 ± 0.27	7.1 ± 0.99
MFTGSIVAIVTPMDEKGNVCRASLKKLIDYHVASGTSAIVSVGTTGESATLNHDEHADVVMMTLDLADGRIPVIAGTGANATAEAISLTQRFNDSGIVGCLTVTPYYNRPSQEGLYQHFKAIAEHTDLPQILYNVPSRTGCDLLPETVGRLAKVKNIIGIKEATGNLTRVNQIKELVSDDFVLLSGDDASALDFMQLGGHGVISVTANVAARDMAQMCKLAAEGHFAEARVINQRLMPLHNKLFVEPNPIPVKWACKELGLVATDTLRLPMTPITDSGRETVRAALKHAGLL [P0A6L2]	4.22 ± 0.18	3.67 ± 0.84	3.03 ± 0.44	4.05 ± 0.09	3.42 ± 0.18	3.09 ± 0.099	5.47 ± 0.57	11.4 ± 0.21	3.43 ± 0.14	5.28 ± 0.1	5.72 ± 0.24	11.1 ± 0.94
MFVEHNLIKNIKIFTLAFTLTVVLIQLSRFISPLAIIHSSYIFLAWMPLCVMLSILFIFGWRGVVPVLCGMFCTNLWNFHLSFLQTAVMLGSQTFVVLCACAILRWQLGTRWRYGLTSRYVWQRLFWLGLVTPIGIKCSMYLVGSFFDFPLKISTFFGDADAIFTVVDLLSLFTAVLIYNMLFYYLTRMIVSPHFAQILWRRDIAPSLGKEKRAFTLSWLAALSVLLLLLCTPYENDFIAGYLVPVFFIIFTLGVGKLRYPFLNLTWAVSTLCLLNYNQNFLQGVETEYSLAFILAVLISFSVCLLYMVRIYHRSEWLNRRWHLQALTDPLTLLPNFRALEQAPEQEAGKSFCCLRIDNLEFMSRHYGLMMRVHCIRSICRTLLPLMQENEKLYQLPGSELLLVLSGPETEGRLQHMVNILNSRQIHWNNTGLDMGYGAAWGRFDGNQETLQPLLGQLSWLAEQSCAHHHVLALDSREEMVSGQTTKQVLLLNTIRTALDQGDLLLYAQPIRNKEGEGYDEILARLKYDGGIMTPDKFLPLIAQFNLSARFDLQVLESLLKWLATHPCDKKGPRFSVNLMPLTLLQKNIAGRIIRLFKRYHISPQAVILEITEEQAFSNAESSMYNIEQLHKFGFRIAIDDFGTGYANYERLKRLQADIIKIDGVFVKDIVTNTLDAMIVRSITDLAKAKSLSVVAEFVETQQQQALLHKLGVQYLQGYLIGRPQPLAD	–	6.53 ± 0.1	5.86 ± 0.58	6.27 ± 0.65	5.72 ± 0.47	–	5.29 ± 1.1	13.6 ± 0.27	6.08 ± 0.22	12.2 ± 1.5	6.1 ± 0.44	13.8 ± 0.87
MFYPDPFDVIIIGGGHAGTEAAMAAARMGQQTLLLTHNIDTLGQMSCNPAIGGIGKGHLVKEVDALGGLMAKAIDQAGIQFRILNASKGPAVRATRAQADRVLYRQAVRTALENQPNLMIFQQAVEDLIVENDRVVGAVTQMGLKFRAKAVVLTVGTFLDGKIHIGLDNYSGGRAGDPPSIPLSRRLRELPLRVGRLKTGTPPRIDARTIDFSVLAQQHGDNPMPVFSFMGNASQHPQQVPCYITHTNEKTHDVIRSNLDRSPMYAGVIEGVGPRYCPSIEDKVMRFADRNQHQIFLEPEGLTSNEIYPNGISTSLPFDVQMQIVRSMQGMENAKIVRPGYAIEYDFFDPRDLKPTLESKFIQGLFFAGQINGTTGYEEAAAQGLLAGLNAARLSADKEGWAPARSQAYLGVLVDDLCTLGTKEPYRMFTSRAEYRLMLREDNADLRLTEIGRELGLVDDERWARFNEKLENIERERQRLKSTWVTPSAEAAAEVNAHLTAPLSREASGEDLLRRPEMTYEKLTTLTPFAPALTDEQAAEQVEIQVKYEGYIARQQDEIEKQLRNENTLLPATLDYRQVSGLSNEVIAKLNDHKPASIGQASRISGVTPAAISILLVWLKKQGMLRRSA [P0A6U3]	5.157 ± 0.0054	4.25 ± 0.18	1.64 ± 0.088	1.831 ± 0.014	1.73 ± 0.065	1.42 ± 0.081	2.35 ± 0.068	3.19 ± 1.2	1.71 ± 0.14	2.48 ± 0.15	1.9 ± 0.13	3.12 ± 0.84
MGAELVKWVKSHKIDAHIITFVAKMPYIDSIKLLEAGAKGCVWKTSHPAKLNRAIDSISNGYTYFDSVHMDCEKISSRYSSDNQLTNRESEILQLIADGKTNKEIANFLQLSRKTVETHRLNIMKKLDVHSGIELIKTALRMGVCTI	5.42	–	–	5.01	5.08 ± 0.25	2.7	4.55 ± 1.5	8.41 ± 2.9	5.22 ± 0.2	–	–	–
